In patent US20260242485A1 one finds EC50 (read off the curve) data, which are given here for 3 substances.

What is called EC50 (read off the curve) is the midpoint of the concentration-response curve. Read a high EC50 (read off the curve) as a need for much substance.

Test [1] concerns the target human CD32B expressed on CHO-K1 cells (human) (UniProt P31994). The test is described as follows: flow cytometry, CHO-K1-hCD32B cells, geometric mean. For orientation: Flow cytometry measures light scatter and fluorescence of single cells or particles in a stream.
Test [2] concerns the target human CD16B-NA1 expressed on CHO-K1 cells (human) (UniProt O75015). The test is described as follows: flow cytometry, CHO-K1-hCD16B-NA1 cells, geometric mean.

Chain of human CD16B-NA1 expressed on CHO-K1 cells (human) (O75015 other isoform, or with tags, fused parts or gaps): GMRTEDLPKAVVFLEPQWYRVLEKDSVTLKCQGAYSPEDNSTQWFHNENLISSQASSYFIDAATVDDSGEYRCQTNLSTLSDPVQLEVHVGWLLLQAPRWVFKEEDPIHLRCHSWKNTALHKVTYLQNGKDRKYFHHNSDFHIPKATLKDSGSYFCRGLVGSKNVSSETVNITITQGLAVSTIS
Chain of human CD32B expressed on CHO-K1 cells (human) (P31994 43-310): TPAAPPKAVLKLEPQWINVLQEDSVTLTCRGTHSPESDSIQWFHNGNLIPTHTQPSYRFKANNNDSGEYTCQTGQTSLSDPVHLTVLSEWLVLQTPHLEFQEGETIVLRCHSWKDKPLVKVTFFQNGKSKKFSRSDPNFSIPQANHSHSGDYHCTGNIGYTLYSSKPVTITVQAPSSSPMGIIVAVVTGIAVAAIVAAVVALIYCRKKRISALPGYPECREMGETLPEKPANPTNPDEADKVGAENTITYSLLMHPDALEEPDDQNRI

Positive control (6G11) (antibody) displayed an EC50 (read off the curve) in test [1] of 0.1 nM.

Substance 3G8-mIgG2aLALAPG (antibody) registered an EC50 (read off the curve) in test [2] of 0.1 to 1 nM. Substance Positive control (3G8) (antibody) returned an EC50 (read off the curve) in test [2] of 0.1 nM.
